Measured values from patent US20050026157, “Use of chimeric nucleases to stimulate gene targeting” (published 2005).

How the values were obtained:
[1] = tested on: GFP-CN1 chimeric nuclease (synthetic); assay: cell_activity; details: paired with GFP-CN2, 293 cells
[2] = tested on: GFP-CN2 chimeric nuclease (synthetic); assay: cell_activity; details: paired with GFP-CN1, 293 cells
[3] = tested on: HBGZF1 chimeric nuclease (synthetic); assay: cell_activity; details: with ZIF-L3-Fn on hybrid target; no significant stimulation alone
[4] = molecular target: ZIF-L3-Fn chimeric nuclease (Zif268 zinc fingers, 3 aa linker, FokI nuclease domain) (UniProt P08046); assay: cell_activity; details: QQRZIF6 target, heterodimer with QQR-L0-Fn; no significant stimulation alone; FIG. 3A prints Zif site as GCGTGGTCG
Chain of ZIF-L3-Fn chimeric nuclease (Zif268 zinc fingers, 3 aa linker, FokI nuclease domain) (P08046 whole entry, change not shown, the tested form may be a part): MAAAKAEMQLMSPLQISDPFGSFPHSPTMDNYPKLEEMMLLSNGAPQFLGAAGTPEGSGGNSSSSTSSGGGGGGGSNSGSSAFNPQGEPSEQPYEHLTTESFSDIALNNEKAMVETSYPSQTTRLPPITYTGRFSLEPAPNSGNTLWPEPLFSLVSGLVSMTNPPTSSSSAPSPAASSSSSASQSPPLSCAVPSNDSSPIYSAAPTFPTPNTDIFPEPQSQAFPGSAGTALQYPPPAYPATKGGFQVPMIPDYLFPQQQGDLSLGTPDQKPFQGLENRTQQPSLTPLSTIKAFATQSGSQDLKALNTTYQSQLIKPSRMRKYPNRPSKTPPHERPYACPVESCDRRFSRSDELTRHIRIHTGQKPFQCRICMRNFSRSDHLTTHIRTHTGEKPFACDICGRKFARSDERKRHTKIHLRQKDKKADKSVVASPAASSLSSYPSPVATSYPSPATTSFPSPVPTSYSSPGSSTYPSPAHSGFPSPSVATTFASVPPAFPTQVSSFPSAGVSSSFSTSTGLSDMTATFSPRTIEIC

[5] = tested on: HBGZF4 chimeric nuclease (synthetic); assay: cell_activity; details: with ZIF-L3-Fn on hybrid target; ~30 fold alone
[6] = tested on: QQR-L0-Fn chimeric nuclease (QQR zinc finger triplet, no linker, FokI nuclease domain) (synthetic); assay: cell_activity
[7] = tested on: QQR-L18-Fn chimeric nuclease (QQR zinc finger triplet, 18 aa linker, FokI nuclease domain) (synthetic); assay: cell_activity; details: homodimer, 293 cells
[8] = tested on: HCGCZF2 chimeric nuclease (synthetic); assay: cell_activity; details: with ZIF-L3-Fn on hybrid target; no significant stimulation alone
[9] = tested on: CD8CN2 chimeric nuclease (synthetic); assay: cell_activity; details: paired with CD8CN1; 5% without nucleases
[10] = tested on: CD8CN1 chimeric nuclease (synthetic); assay: cell_activity; details: paired with CD8CN2; 5% without nucleases
I-SceI = molecular target: T1, I-SceI (UniProt P03882 P03882:1-235); assay: cell_activity; homing endonuclease, A658 target, 293 cells
T1 sequence: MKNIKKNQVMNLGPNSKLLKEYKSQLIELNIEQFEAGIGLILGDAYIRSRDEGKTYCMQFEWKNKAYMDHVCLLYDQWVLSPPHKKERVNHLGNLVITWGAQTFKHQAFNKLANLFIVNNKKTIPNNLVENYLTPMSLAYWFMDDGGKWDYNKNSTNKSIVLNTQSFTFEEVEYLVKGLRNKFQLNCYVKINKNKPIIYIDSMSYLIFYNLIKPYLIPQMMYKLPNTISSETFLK
From the text: FIG. 1A illustrates a GFP gene targeting system. The artificial gene target (A658) consisted of a GFP gene mutated by a 35 basepair insertion which includes a stop codon and a recognition site for the I-SceI endonuclease (Sce) (5′ […] 3′) at basepair 327 of the coding sequence. The GFP gene was driven by a hybrid cytomegalovirus enhancer/chicken β3-actin promoter (“CMV/CBA” or “CBA”). The GFP gene was part of bicistronic transcript in which an internal ribosomal entry site (“IRES”) allowed translation of the human CD8α gene (“CD8”). The bicistronic message contained a Woodchuck post-trancriptional regulatory element (“WPRE”) to increase messenger RNA levels (Zufferey et al., 1999, J Virol, 73:2886-92). Finally, the locus contained a gene with the phosphoglycerate kinase promoter (“PGK”) driving the neomycin phosphotransferase gene (NEO) to allow selection by the antibiotic G418. […] Gene targeting was measured by transfecting 293/A658 cells with RS2100 with or without a Sce expression plasmid along with a control plasmid (pON405) to determine the transfection efficiency. […] The cells were then incubated for 3 days and the percentage of GFP positive cells measured by flow cytometry using a FACScan (BD Biosciences, San Jose, Calif.). The gene targeting rate was determined by normalizing the measured percentage of GFP positive cells to the transfection efficiency.

Molecule: GAAGATGGT (double strand) [GFP-CN1 half-site]
- activity (fold stimulation of gene targeting) [1]: 1000

Molecule: GACGACGGC (double strand) [GFP-CN2 half-site]
- activity (fold stimulation of gene targeting) [2]: 1000

Molecule: GAGGTTGCT (double strand) [HBGZF1 half-site]
- activity (fold stimulation of gene targeting) [3]: > 4000

Molecule: GCGTGGGCG (double strand) [Zif268 half-site]
- activity (fold stimulation of gene targeting) [4]: > 5000

Molecule: GGCAAGGTG (double strand) [HBGZF4 half-site]
- activity (fold stimulation of gene targeting) [5]: 60

Molecule: GGGGAAGAA (double strand) [QQR6 target (inverted QQR sites, 6 bp spacer)]
- activity (fold stimulation of gene targeting) ([6]; homodimer, 293 cells, as efficient as I-SceI): > 2000
- activity (fold stimulation of gene targeting) [7]: 17

Molecule: GGGGAAGAA (double strand) [QQR8 target (inverted QQR sites, 8 bp spacer)]
- activity (fold stimulation of gene targeting) [7]: 260

Molecule: GGGGAAGAA (double strand) [QQR half-site in QQRZIF6]
- activity (fold stimulation of gene targeting) ([6]; QQRZIF6 target, heterodimer with ZIF-L3-Fn, no significant stimulation alone): > 5000

Molecule: GGGGGAGCA (double strand) [HCGCZF2 half-site]
- activity (fold stimulation of gene targeting) [8]: > 200

Molecule: GTCGCAGCC (double strand) [CD8CN2 half-site]
- activity (% CD8 negative cells) [9]: > 20

Molecule: GTGGGCGCC (double strand) [CD8CN1 half-site]
- activity (% CD8 negative cells) [10]: > 20

B1: I-SceI site in A658 (dsDNA)
DNA 1: TAGGGATAACAGGGTAAT
DNA 2: ATTACCCTGTTATCCCTA
- activity (I-SceI): > 2000 fold stimulation of gene targeting
